Test results taken from patent US20250346669A1.

molecular target: CD3 on CD3 expressing Jurkat cells (UniProt P07766); assay: flow cytometry on CD3 expressing Jurkat cells; concentration of half maximal binding

| Substance | EC50 |
| --- | --- |
| UCHT1 Fab fragment | 0.6 nM |
| OKT3 (IgG version of the monospecific anti-CD3 antibody) | 0.3 nM |
| UCHT1 (IgG version of the monospecific anti-CD3 antibody) | 0.6 nM |
| OKT3 Fab fragment | 23.7 nM |
